Drawing on the RNAGym collection of RNA variant scans (doi:10.7554/elife.80360), this text covers self-cleavage for 78 variants.

B1: CPEB3 Ribozyme (parent)
chain: GGGGGCCACAGCAGAAGCGUUCACGUCGCGGCCCCUGUCAGAUUCUGGUGAAUCUGCGAAUUCUGCUGU

This data set covers variants of B1. Briefly: self-cleavage, relative activity (ratio to wild type); higher = more cleavage; co-transcriptional.
Regarding GGGGGCCACAGCAGAAACGUUCACGUCGCGGCCCCUGUCAGAUUCUGGUGAAUCUGCGAAUUCUGCAGU, the self-cleavage was 0.45.

For the variant GGGGGCCACAGCAGAAACGUUCACGUCGCGGCCCCUGUCAGAUUCUGGUGAAUCUGCGAAUUCUGCGGU, the self-cleavage came to 0.542.

Take GGGGGCCACAGCAGAACCGUUCACGUCGCGGCCCCUGUCAGUUUCUGGUGAAUCUGCGAAUUCUGCUGU: the self-cleavage amounted to 0.151.

In the case of GGGGGCCACAGCAGAACCGUUCACGUCGCGGCCCCUGUCAGCUUCUGGUGAAUCUGCGAAUUCUGCUGU, the self-cleavage worked out at 0.14.

Regarding GGGGGCCACAGCAGAACCGUUCACGUCGCGGCCCCUGUCAGAUUCUGGUGAAUCUCCGAAUUCUGCUGU, the self-cleavage came out at 0.105.

GGGGGCCACAGCAGAACCGUUCACGUCGCGGCCCCUGUCAGAUUCUGGUGAAUCUACGAAUUCUGCUGU: the self-cleavage was found to be 0.103.

As to GGGGGCCACAGCAGAACCGUUCACGUCGCGGCCCCUGUCAGAUUCUGGUGAAUCUUCGAAUUCUGCUGU, the self-cleavage is 0.115.

For GGGGGCCACAGCAGAACCGUUCGCGUCGCGGCCCCUGUCAGAUUCUGGUGAAUCUGCGAAUUCUGCUGU, the self-cleavage was determined as 0.116.

For the variant GGGGGCCACAGCAGAACCGUUCCCGUCGCGGCCCCUGUCAGAUUCUGGUGAAUCUGCGAAUUCUGCUGU, the self-cleavage turned out to be 0.178.

For the variant GGGGGCCACAGCAGAACCGUUCUCGUCGCGGCCCCUGUCAGAUUCUGGUGAAUCUGCGAAUUCUGCUGU, the self-cleavage is 0.103.

Turning to GGGGGCCACAGCAGAAACGUUCACGUCGCGGCCCCUGUCAGAUUCUGGUGAAUCUGCGAAUUCUGCUGG, the self-cleavage turned out to be 0.677.

In the case of GGGGGCCACAGCAGAAACGUUCACGUCGCGGCCCCUGUCAGAUUCUGGUGAAUCUGCGAAUUCUGCUGC, the self-cleavage was found to be 0.883.

As for GGGGGCCACAGCAGAACCGUUCACGUCGCGGCCCCUGUCAGAUUCUGGUGAAUCUGAGAAUUCUGCUGU, the self-cleavage was 0.147.

Regarding GGGGGCCACAGCAGAACCGUUCACGUCGCGGCCCCUGUCAGAUUCUGGUGAAUCUGUGAAUUCUGCUGU, the self-cleavage stood at 0.18.

Regarding GGGGGCCACAGCAGAACCGUUCACGUCGCGGCCCCUGUCAGAUUCUGGUGAAUCUGCGAGUUCUGCUGU, the self-cleavage is 0.127.

GGGGGCCACAGCAGAACCGUUCACGUCGCGGCCCCUGUCAGAUUCUGGUGAAUCUGCGAUUUCUGCUGU: the self-cleavage was 0.183.

As for GGGGGCCACAGCAGAACCGUUCACGUCGCGGCCCCUGUCAGAUUCUGGUGAAUCUGCGACUUCUGCUGU, the self-cleavage was 0.109.

Turning to GGGGGCCACAGCAGAACCGUUAACGUCGCGGCCCCUGUCAGAUUCUGGUGAAUCUGCGAAUUCUGCUGU, the self-cleavage amounted to 0.117.

GGGGGCCACAGCAGAACCGUUGACGUCGCGGCCCCUGUCAGAUUCUGGUGAAUCUGCGAAUUCUGCUGU: the self-cleavage is 0.156.

For GGGGGCCACAGCAGAACCGUUCACGUCGCGGCCCCUGUCAGAUUCUGGUGUAUCUGCGAAUUCUGCUGU, the self-cleavage is 0.173.

With GGGGGCCACAGCAGAACCGUUCACGUCGCGGCCCCUGUCAGAUUCUGGUGGAUCUGCGAAUUCUGCUGU, the self-cleavage was 0.126.

On to GGGGGCCACAGCAGAACCGUUCACGUCGCGGCCCCUGUCAGAUUCUGGUGAAUCUGCGAAUUGUGCUGU, for which the self-cleavage worked out at 0.103.

For GGGGGCCACAGCAGAACCGUUCACGUCGCGGCCCCUGUCAGAUUCUGGUGAAUCUGCGAAUUUUGCUGU, the self-cleavage worked out at 0.139.

As to GGGGGCCACAGCAGAACCGUUCACGUCGCGGCCCCUGUCAGAUUCUGGUUAAUCUGCGAAUUCUGCUGU, the self-cleavage was 0.157.

As to GGGGGCCACAGCAGAACCGUUCACGUCGCGGCCCCUGUCAGAUUCUGGUAAAUCUGCGAAUUCUGCUGU, the self-cleavage is 0.142.

Take GGGGGCCACAGCAGAACCGUUCACGUGGCGGCCCCUGUCAGAUUCUGGUGAAUCUGCGAAUUCUGCUGU: the self-cleavage was found to be 0.156.

With GGGGGCCACAGCAGAACCGUUCACGUAGCGGCCCCUGUCAGAUUCUGGUGAAUCUGCGAAUUCUGCUGU, the self-cleavage is 0.129.

Turning to GGGGGCCACAGCAGAACCGUUCACGUCCCGGCCCCUGUCAGAUUCUGGUGAAUCUGCGAAUUCUGCUGU, the self-cleavage stood at 0.129.

Turning to GGGGGCCACAGCAGAACCGUUCACGUCUCGGCCCCUGUCAGAUUCUGGUGAAUCUGCGAAUUCUGCUGU, the self-cleavage was found to be 0.111.

Regarding GGGGGCCACAGCAGAACCGUUCACGUCACGGCCCCUGUCAGAUUCUGGUGAAUCUGCGAAUUCUGCUGU, the self-cleavage turned out to be 0.127.

GGGGGCCACAGCAGAACCGUUCACGUCGCGGCCCCUGUCAGAUUCUCGUGAAUCUGCGAAUUCUGCUGU: the self-cleavage is 0.212.

Regarding GGGGGCCACAGCAGAACCGUUCACGUCGCGGCCCCUGUCGGAUUCUGGUGAAUCUGCGAAUUCUGCUGU, the self-cleavage was 0.124.

For the variant GGGGGCCACAGCAGAACCGUUCACGUCGCGGCCCCUGUCCGAUUCUGGUGAAUCUGCGAAUUCUGCUGU, the self-cleavage is 0.16.

Turning to GGGGGCCACAGCAGAACCGUUCACGUCGCGGCCCCUGUCUGAUUCUGGUGAAUCUGCGAAUUCUGCUGU, the self-cleavage was 0.14.

GGGGGCCACAGCAGAACCGUUCACGUCGCGGCCCCUGUCAGAUUCUGGUGAAUAUGCGAAUUCUGCUGU: the self-cleavage was found to be 0.1.

GGGGGCCACAGCAGAACCGUUCACGUCGCGGCCCCUGUCAGAUUCUGGUGAAUGUGCGAAUUCUGCUGU: the self-cleavage was determined as 0.166.

Regarding GGGGGCCACAGCAGAACCGUUCACGUCGCGGCCCCUGUCAGAUUCUGGUGAAUCUGCAAAUUCUGCUGU, the self-cleavage came out at 0.139.

In the case of GGGGGCCACAGCAGAACCGUUCACGUCGCGGCCCCUGUCAGAUUCUGGUGAAUCUGCCAAUUCUGCUGU, the self-cleavage was found to be 0.198.

On to GGGGGCCACAGCAGAACCGUUCACGUCGCGGCCCAUGUCAGAUUCUGGUGAAUCUGCGAAUUCUGCUGU, for which the self-cleavage was 0.135.

For GGGGGCCACAGCAGAACCGUUCACGUCGCGGCCCCUGUCAGAUUCUGGUGAAUCUGCGUAUUCUGCUGU, the self-cleavage stood at 0.0945.

For GGGGGCCACAGCAGAACCGUUCACGUCGCUGCCCCUGUCAGAUUCUGGUGAAUCUGCGAAUUCUGCUGU, the self-cleavage is 0.206.

Take GGGGGCCACAGCAGAACCGUUCACGUCGCCGCCCCUGUCAGAUUCUGGUGAAUCUGCGAAUUCUGCUGU: the self-cleavage amounted to 0.134.

For the variant GGGGGCCACAGCAGAACCGUUCACGUCGCAGCCCCUGUCAGAUUCUGGUGAAUCUGCGAAUUCUGCUGU, the self-cleavage was 0.154.

GGGGGCCACAGCAGAACCGUUCACAUCGCGGCCCCUGUCAGAUUCUGGUGAAUCUGCGAAUUCUGCUGU: the self-cleavage came to 0.15.

Consider GGGGGCCACAGCAGAACCGUUCACUUCGCGGCCCCUGUCAGAUUCUGGUGAAUCUGCGAAUUCUGCUGU, for which the self-cleavage is 0.107.

Take GGGGGCCACAGCAGAACCGUUCACCUCGCGGCCCCUGUCAGAUUCUGGUGAAUCUGCGAAUUCUGCUGU: the self-cleavage came out at 0.12.

In the case of GGGGGCCACAGCAGAACCGUUCACGUCGCGCCCCCUGUCAGAUUCUGGUGAAUCUGCGAAUUCUGCUGU, the self-cleavage was found to be 0.14.

Regarding GGGGGCCACAGCAGAACCGUUCACGUCGCGUCCCCUGUCAGAUUCUGGUGAAUCUGCGAAUUCUGCUGU, the self-cleavage came out at 0.103.

For the variant GGGGGCCACAGCAGAACCGUUCACGUCGCGGCCGCUGUCAGAUUCUGGUGAAUCUGCGAAUUCUGCUGU, the self-cleavage was determined as 0.157.

Regarding GGGGGCCACAGCAGAACCGUUCACGUCGCGGCCACUGUCAGAUUCUGGUGAAUCUGCGAAUUCUGCUGU, the self-cleavage is 0.18.

Take GGGGGCCACAGCAGAACCGUUCACGUCGCGGCCUCUGUCAGAUUCUGGUGAAUCUGCGAAUUCUGCUGU: the self-cleavage stood at 0.174.

As to GGGGGCCACAGCAGAACUGUUCACGUCGCGGCCCCUGUCAGAUUCUGGUGAAUCUGCGAAUUCUGCUGU, the self-cleavage is 0.169.

As for GGGGGCCACAGCAGAACCGUUCACGUCGCGGCCCCUGUCAUAUUCUGGUGAAUCUGCGAAUUCUGCUGU, the self-cleavage came out at 0.123.

Regarding GGGGGCCACAGCAGAACCGUUCACGUCGCGGCCCCUGUCACAUUCUGGUGAAUCUGCGAAUUCUGCUGU, the self-cleavage was 0.156.

With GGGGGCCACAGCAGAAACGUUCACGUCGCGGCCCCUGUCAGAUUCUGGUGAAUCUGCGAAUUCGGCUGU, the self-cleavage was 0.256.

For GGGGGCCACAGCAGAAACGUUCACGUCGCGGCCCCUGUCAGAUUCUGGUGAAUCUGCGAAUUCCGCUGU, the self-cleavage amounted to 0.242.

As to GGGGGCCACAGCAGAACCGUUCACGUCGAGGCCCCUGUCAGAUUCUGGUGAAUCUGCGAAUUCUGCUGU, the self-cleavage turned out to be 0.367.

For GGGGGCCACAGCAGAACCGUUCAAGUCGCGGCCCCUGUCAGAUUCUGGUGAAUCUGCGAAUUCUGCUGU, the self-cleavage was found to be 0.141.

In the case of GGGGGCCACAGCAGAACCGUUCAUGUCGCGGCCCCUGUCAGAUUCUGGUGAAUCUGCGAAUUCUGCUGU, the self-cleavage was found to be 0.109.

GGGGGCCACAGCAGAACCGUUCAGGUCGCGGCCCCUGUCAGAUUCUGGUGAAUCUGCGAAUUCUGCUGU: the self-cleavage came out at 0.208.

On to GGGGGCCACAGCAGAACCGUUCACGUCGCGGCCCCUGUCAGAUUCUGGUGAGUCUGCGAAUUCUGCUGU, for which the self-cleavage came out at 0.196.

For GGGGGCCACAGCAGAACCGUUCACGUCGCGGCCCCUGUCAGAUUCUGGUGAUUCUGCGAAUUCUGCUGU, the self-cleavage was determined as 0.133.

For the variant GGGGGCCACAGCAGAACCGUUCACGUCGCGGCCCCUGUGAGAUUCUGGUGAAUCUGCGAAUUCUGCUGU, the self-cleavage came out at 0.115.

Consider GGGGGCCACAGCAGAACCGUUCACGUCGCGGCCCCUGUAAGAUUCUGGUGAAUCUGCGAAUUCUGCUGU, for which the self-cleavage is 0.081.

For the variant GGGGGCCACAGCAGAACCGUUCACGUCGCGGCUCCUGUCAGAUUCUGGUGAAUCUGCGAAUUCUGCUGU, the self-cleavage is 0.139.

Consider GGGGGCCACAGCAGAACCGUUCACGUCGCGGCACCUGUCAGAUUCUGGUGAAUCUGCGAAUUCUGCUGU, for which the self-cleavage came out at 0.152.

On to GGGGGCCACAGCAGAACCCUUCACGUCGCGGCCCCUGUCAGAUUCUGGUGAAUCUGCGAAUUCUGCUGU, for which the self-cleavage was 0.118.

As to GGGGGCCACAGCAGAACCAUUCACGUCGCGGCCCCUGUCAGAUUCUGGUGAAUCUGCGAAUUCUGCUGU, the self-cleavage is 0.103.

On to GGGGGCCACAGCAGAACCUUUCACGUCGCGGCCCCUGUCAGAUUCUGGUGAAUCUGCGAAUUCUGCUGU, for which the self-cleavage is 0.0627.

As for GGGGGCCACAGCAGAACCGUUCACGUCGCGGACCCUGUCAGAUUCUGGUGAAUCUGCGAAUUCUGCUGU, the self-cleavage was determined as 0.113.

For GGGGGCCACAGCAGAACCGUUCACGUCGCGGUCCCUGUCAGAUUCUGGUGAAUCUGCGAAUUCUGCUGU, the self-cleavage was found to be 0.136.

As for GGGGGCCACAGCAGAACCGUUCACGUCGCGGCCCCUGUCAGAUUGUGGUGAAUCUGCGAAUUCUGCUGU, the self-cleavage is 0.142.

Take GGGGGCCACAGCAGAACCGUUCACGUCGCGGCCCCUGUCAGAUUUUGGUGAAUCUGCGAAUUCUGCUGU: the self-cleavage is 0.121.

With GGGGGCCACAGCAGAACCGUUCACGUCGCGGCCCCUCUCAGAUUCUGGUGAAUCUGCGAAUUCUGCUGU, the self-cleavage was 0.0977.

Consider GGGGGCCACAGCAGAACCGUUCACGUCGCGGCCCCUAUCAGAUUCUGGUGAAUCUGCGAAUUCUGCUGU, for which the self-cleavage turned out to be 0.0971.

For the variant GGGGGCCACAGCAGAACCGUUCACGUCGCGGCCCCUGUCAGAUUCUGGUGAAUCUGCGAAUUCUGUUGU, the self-cleavage was 0.152.

Take GGGGGCCACAGCAGAACCGUUCACGUCGCGGCCCCUGUCAGAUUCUGCUGAAUCUGCGAAUUCUGCUGU: the self-cleavage was found to be 0.158.

As to GGGGGCCACAGCAGAACCGUUCACGUCGCGGCCCCUGUCAGAUUCUGUUGAAUCUGCGAAUUCUGCUGU, the self-cleavage amounted to 0.194.
